The values that follow come from paper PMC3305072.

Data set [1] concerns the target BlaP(Gln)79 (Bacillus licheniformis 749/C). Kind of data set: SEC; Superdex 200 GL 10/300, PBS pH 7.5, protein injected at 120 µM, 0.5 mL/min, A280; percent of monomeric, dimeric and high molecular weight species. On the technique in general: SEC sorts molecules by how far they enter the pores of the column.
Assay in data set [2]: as above
Data set [3] is described as follows: SEC; Superdex 200 GL 10/300, PBS pH 7.5, protein injected at 50 µM, 0.5 mL/min, A280; percent of monomeric, dimeric and high molecular weight species.
Data set [4] can be described thus: SEC; Superdex 200 GL 10/300, PBS pH 7.5, protein injected at 10 µM, 0.5 mL/min, A280; percent of monomeric, dimeric and high molecular weight species.

What is called stoichiometry N is a count of units in the complex or per binding partner. For BlaP(Gln)79 (enzyme), the stoichiometry N in data set [1] was more than 15.
With BlaP(Gln)30, the % dimeric species (SEC) in data set [2] turned out to be 0.5%; in data set [3] it was 0.4%.
For BlaP(Gln)55, in that order: 1.4% and 1.1%.
Turning to BlaP(Gln)79, the % dimeric species (SEC) in data set [2] turned out to be 1.2%; in data set [3] it was 1.1%; in data set [4] it was 0.9%. The % high molecular weight oligomeric species (SEC) was found to be 3.5% in data set [2], 2.5% in data set [3] and 1.8% in data set [4].
Regarding “β-lactamase from Bacillus licheniformis 749/C (BlaP)”, the % dimeric species (SEC) in data set [2] stood at 5.6%; in data set [3], 4.9%.
With BlaP(Gln)23, the % dimeric species (SEC) in data set [2] worked out at 0.7%; in data set [3], 0.6%.
